Reference: patent US12576154B2, “Conjugates of PSMA-binding moieties with cytotoxic agents” (PHILOCHEM AG, priority 2022, dated 2026)

Columns and labels:
HT1080.hPSMA tumor = assay: MMAE release from conjugates in HT1080.hPSMA tumor model (comparison and timepoint study); format: in vivo, mice; details: HT1080.hPSMA tumor, n=3
Description: HT1080.hPSMA tumor cells were grown to 90% confluence and detached with Trypsin-EDTA 0.05%. Cells were resuspended in Hank's Balanced Salt Solution (HBSS) at a density of 5×10^7 cells/mL. 100 μL of HT1080.hPSMA cells (5×10^6 cells) were injected subcutaneously in the right flank of female athymic Balb/c AnNRj-Foxn1 mice (6 to 8 weeks of age). Tumors were grown until ˜250 mm^3 volume (average).
Comparison study: 0.1 mL of 50 μM solutions (2% DMSO, PBS, 250 nmol/kg) of the four conjugates (1 to 4) were injected intravenously. The animals were sacrificed in groups of 3 after 24 h, and blood and the following organs were extracted: HT1080.hPSMA tumor, heart, lungs, liver, kidney, spleen, stomach. The blood fraction was centrifuged, and the plasma (supernatant) was extracted. The organs were stored at −80° C. before being used for further analysis.
Timepoint study: 0.1 mL of a 50 μM solution (2% DMSO, PBS, 250 nmol/kg) of conjugate 1 was injected intravenously into the tail vein of the mice. The animals were sacrificed in groups of 3 after 6 h, 24 h, 48 h, and 72 h, and blood and the following organs were extracted: HT1080.hPSMA tumor, heart, lungs, liver, kidney, spleen, stomach. The blood fraction was centrifuged, and the plasma (supernatant) was extracted. The organs were stored at −80° C. before being used for further analysis.
Frozen plasma (50 μL) and mouse tissues (˜50 mg) were thawed, and 500 μL of PBS was added. Samples were kept on ice, and 50 μL solution of internal standard (d8-MMAE, 50 nM) was added. Samples were then homogenized at 4° C. with a tissue lyser for 2 minutes at 30 Hz for 4 cycles. After homogenization, samples were centrifuged (21'000 g, 10 min). Subsequently, 100 μL of supernatants were collected and added to 900 μL of acetonitrile (ACN) to induce protein precipitation. After centrifugation (21'000 g, 10 min), 800 μL of supernatants were collected and dried at room temperature with a vacuum centrifuge. Pellets were then resuspended in 20 μL of an aqueous solution containing 3% ACN and 0.1% of HCOOH, and 5 μL were injected into the UHPLC-MS system. Chromatographic separation was carried out on a Hypersil Gold C18 column (100 mm×2.1 mm, 1.9 μm particle size, 175 Å pore size) column temperature was set at 50° C. and a flow rate of 700 μL/min with a gradient program from 95% A (water+0.1% HCOOH), 5% B (ACN+0.1% HCOOH) to 35% of A in 2.5 minutes, from 35% A to 5% A in 0.4 minutes and 5% A was kept for 1.3 minutes before reconditioning at 95% A. The LC system was coupled to a Q-Exactive mass spectrometer via an Ion Max HESI Source. Ionization was carried out with a spray voltage of 3.5 kV; Sheath gas 40 units; Aux gas 10 units; capillary temperature of 380° C.; Aux gas temperature 450° C.; S-lens RF level 60. The mass spectrometer was operating in targeted Single Ion Monitoring mode (t-SIM) following the molecular ion 718.5113 m/z. The detector was working in positive ionization mode with the following parameters: resolution 70'000 (FWHM at 200 m/z); AGC target of 5×10^4; maximum injection time of 200 ms; isolation window 14 m/z; isolation offset 5 m/z. Peak areas of analytes and internal standards were integrated, and corresponding ratios were calculated. The ratios were then transformed into pmol/g of wet tissue using single-concentration external calibration points and corrected by the total weight of the sample analysed. The percentage of injected dose per gram (% ID/g) was finally calculated by normalizing the value based on the total dose injected into the mouse. Data analysis was performed with Skyline v22.2.0.351.

HT1080.hPSMA xenografts [1] = assay: Comparative therapy experiment in mice bearing HT1080.hPSMA xenografts (tumor volume); format: in vivo; details: 250 nmol/kg i.v. on days 8, 10, 12 after tumor implantation, n=5
Description: (§1) HT1080.hPSMA tumor cells were grown to 90% confluence and detached with Trypsin-EDTA 0.05%. Cells were resuspended in Hank's Balanced Salt Solution (HBSS) at a 5×10^7 cells/mL density. 100 μL of HT1080.hPSMA cells (5×10^6 cells) were injected subcutaneously in the right flank of female athymic Balb/c AnNRj-Foxn1 mice (6 to 8 weeks of age). Tumors were grown until volumes of […].
(§2) Tumor-bearing mice were randomized into groups of 5 and 0.1 mL of 50 μM solutions (2% DMSO, PBS, 250 nmol/kg) of the four conjugates (1 to 4), or saline solution (0.9% NaCl) was injected intravenously three times with 1-day break in between (days 8, 10, and 12 after tumor implantation).

[2] = Body weight change during comparative therapy experiment (Example 4); format: in vivo, mice; details: 250 nmol/kg i.v. on days 8, 10, 12, n=5
Description: as §1, §2

HT1080.hPSMA xenografts [3] = assay: Payload study and combination therapy with L19-IL2 in HT1080.hPSMA tumor model (tumor volume); format: in vivo, mice; details: conjugates 250 nmol/kg i.v. days 7 and 11; L19-IL2 2.5 mg/kg i.v. days 8, 10, 12; n=3/4
Description: HT1080.hPSMA tumor cells were grown to 90% confluence and detached with Trypsin-EDTA 0.05%. Cells were resuspended in Hank's Balanced Salt Solution (HBSS) at a 5×10^7 cells/mL density. 100 μL of HT1080.hPSMA cells (5×10^6 cells) were injected subcutaneously in the right flank of female athymic Balb/c AnNRj-Foxn1 mice (6 to 8 weeks of age). Tumors were grown until an average volumes of ˜100 mm^3 was reached.
Tumor-bearing mice were randomized into groups of 3 or 4 animals. A 50 μM solution (2% DMSO, 250 nmol/kg; 100 μL) of Conjugate 1, 5, or 6, L19-IL2 (SEQ ID NO: 10, 0.5 mg/mL, 2.5 mg/kg; 100 μL), PBS (100 μL), or L19-IL2 buffer (NaH2PO4 6.7 mM, NaCl 20 mM, KCl 1.8 mM, Mannitol 133 mM, Tween80 0.1% v/v, Glycerol 1% w/v; 100 μL) was injected intravenously (i.e., systemic administration through tail-vein) with the following schedule:
Groups of Conjugates 1, 5, or 6: two separate injections with a 3-day break in between (day 7 and day 11 after tumor implantation).
L19-IL2 group: three separate injections with a 1-day break in between (day 8, day 10, and day 12 after tumor implantation).
Combination therapy groups: two separate injections of Conjugate 1, 5, or 6 with a 3-day break in between (day 7 and day 11 after tumor implantation) and three separate injections of L19-IL2 with a 1-day break in between (day 8, day 10, and day 12 after tumor implantation). […]

CC[C@H](C)[C@@H]([C@@H](CC(=O)N1CCC[C@H]1[C@H](OC)[C@@H](C)C(=O)N[C@H](C)[C@@H](O)c1ccccc1)OC)N(C)C(=O)[C@@H](NC(=O)[C@H](C(C)C)N(C)C(=O)OCc1ccc(NC(=O)[C@@H]2CCCN2C(=O)CNC(=O)CCCCCN2C(=O)CC(SC[C@H](N)C(=O)NCCCCCC(=O)NC[C@H]3CC[C@H](C(=O)N[C@@H](Cc4ccc5ccccc5c4)C(=O)NCCCC[C@H](NC(=O)N[C@@H](CCC(=O)O)C(=O)O)C(=O)O)CC3)C2=O)cc1)C(C)C (stereo partly drawn) [Conjugate 1]
Timepoint study of MMAE release (HT1080.hPSMA tumor; 6 h, 24 h, 48 h, 72 h after i.v. 250 nmol/kg): stable payload accumulation in the tumors over an extended time | MMAE release in tumor (HT1080.hPSMA tumor; 24 hours after intravenous injection, 250 nmol/kg): 4.5 % ID/g | Complete remissions (HT1080.hPSMA xenografts [1]): 1/5 | Therapeutic efficacy (tumor volume change) (HT1080.hPSMA xenografts [1]): significant shrinkage of the tumors of all 5 mice | Toxicity (body weight change %) [2]: lowest toxicity | In vivo anti-tumor activity, monotherapy (tumor volume) (HT1080.hPSMA xenografts [3]): slightly lower anti-cancer efficacy as compared to Conjugate 5
